How the values were obtained:
[1] = biological target: Acanthamoeba castellanii actin (Acanthamoeba castellanii)
[2] = biological target: Acanthamoeba castellanii actin (Acanthamoeba castellanii); remark: listed apart in the source

“Fhod-B (C-terminal half: FH1 and FH2 domains and the Fhod-B tail) (domain or fragment)” showed a run length, mean of three independent samples, TIRF microscopy with profilin [1] of 24.1 μm and a median run length (length of dim filaments after 5 min), TIRF microscopy with profilin; said to be an underestimate [2] of 24 μm.

Source: article PMC10797183
